B1: MEDI8852 UCA VH V65P/VL G95P IgG (antibody, V domains shown)
VH: QVQLQQSGPGLVKPSQTLSLTCAISGDSVSSNSAAWNWIRQSPSRGLEWLGRTYYRSKWYNDYAPSVKSRITINPDTSKNQFSLQLNSVTPEDTAVYYCARGGHITIFGVNIDAFDIWGQGTMVTVSS
VL: DIQMTQSPSSLSASVGDRVTITCRASQSISSYLNWYQQKPGKAPKLLIYAASSLQSGVPSRFSGSGSGTDFTLTISSLQPEDFATYYCQQSRTFPQGTKVEIK
B2: mAb114 VH D42G-A68T-S79Y IgG (antibody, V domains shown)
VH: EVQLVESGGGLIQPGGSLRLSCAASGFALRMYDMHWVRQTIGKRLEWVSAVGPSGDTYYADSVKGRFTVSRENAKNSLYLQMNSLTAGDTAIYYCVRSDRGVAGLFDSWGQGILVTVSS
VL: DIQMTQSPSSLSASVGDRITITCRASQAFDNYVAWYQQRPGKVPKLLISAASALHAGVPSRFSGSGSGTHFTLTISSLQPEDVATYYCQNYNSAPLTFGGGTKVEIK
B3: mAb114 VH I41P-D42G-A68T-S79Y-I113T IgG (antibody, V domains shown)
VH: EVQLVESGGGLIQPGGSLRLSCAASGFALRMYDMHWVRQTPGKRLEWVSAVGPSGDTYYADSVKGRFTVSRENAKNSLYLQMNSLTAGDTAIYYCVRSDRGVAGLFDSWGQGTLVTVSS
VL: DIQMTQSPSSLSASVGDRITITCRASQAFDNYVAWYQQRPGKVPKLLISAASALHAGVPSRFSGSGSGTHFTLTISSLQPEDVATYYCQNYNSAPLTFGGGTKVEIK
B4: mAb114 VH I41P-D42G-A68T-S79Y-I113T / VL V43A IgG (antibody, V domains shown)
VH: EVQLVESGGGLIQPGGSLRLSCAASGFALRMYDMHWVRQTPGKRLEWVSAVGPSGDTYYADSVKGRFTVSRENAKNSLYLQMNSLTAGDTAIYYCVRSDRGVAGLFDSWGQGTLVTVSS
VL: DIQMTQSPSSLSASVGDRITITCRASQAFDNYVAWYQQRPGKAPKLLISAASALHAGVPSRFSGSGSGTHFTLTISSLQPEDVATYYCQNYNSAPLTFGGGTKVEIK
B5: mAb114 VH A68T-E72D-S79Y-I113T / VL V43A IgG (antibody, V domains shown)
VH: EVQLVESGGGLIQPGGSLRLSCAASGFALRMYDMHWVRQTIDKRLEWVSAVGPSGDTYYADSVKGRFTVSRDNAKNSLYLQMNSLTAGDTAIYYCVRSDRGVAGLFDSWGQGTLVTVSS
VL: DIQMTQSPSSLSASVGDRITITCRASQAFDNYVAWYQQRPGKAPKLLISAASALHAGVPSRFSGSGSGTHFTLTISSLQPEDVATYYCQNYNSAPLTFGGGTKVEIK
B6: mAb114 VH A68T-I113T / VL V43A IgG (antibody, V domains shown)
VH: EVQLVESGGGLIQPGGSLRLSCAASGFALRMYDMHWVRQTIDKRLEWVSAVGPSGDTYYADSVKGRFTVSRENAKNSLSLQMNSLTAGDTAIYYCVRSDRGVAGLFDSWGQGTLVTVSS
VL: DIQMTQSPSSLSASVGDRITITCRASQAFDNYVAWYQQRPGKAPKLLISAASALHAGVPSRFSGSGSGTHFTLTISSLQPEDVATYYCQNYNSAPLTFGGGTKVEIK

These binders were tested against HA H4 Hubei, A/swine/Hubei/06/2009(H4N1) (Influenza A virus) (assay: not given).

Row | Binder | Kd [nM]
1 | B1 | 100

What follows are binders tested against full-length Ebola GP on pseudotyped lentivirus (Zaire ebolavirus) (UniProt Q05320) (assay: cell-based or functional assay).

Row | Binder | Ebola GP pseudotyped lentivirus IC50 [nM]
2 | B2 | 1.2
3 | B3 | 1.2
4 | B4 | 1
5 | B5 | 1.2
6 | B6 | 1.1

Reference: US20250243261A1
